# Measured values published in publication PMC12463012, “Sequence‐ and Docking‐Site‐Dependent Contributions to Multi‐Site Phosphorylation of an Intrinsically Disordered MAPK Substrate” (Advanced Science, 2025).
# B1: JIP1^SH3 (JIP1 IDR residues 1–450 linked to the SH3 domain of JIP1, residues 489–553, via a (GS)3G linker) (domain or fragment)
# chain: GHMMAERESGGLGGGAASPPAASPFLGLHIASPPNFRLTHDISLEEFEDEDLSEITDECGISLQCKDTLSLRPPRAGLLSAGGGGAGSRLQAEMLQMDLIDATGDTPGAEDDEEDDDEERAARRPGAGPPKAESGQEPASRGQGQSQGQSQGPGSGDTYRPKRPTTLNLFPQVPRSQDTLNNNSLGKKHSWQDRVSRSSSPLKTGEQTPPHEHICLSDELPPQSGPAPTTDRGTSTDSPCRRSTATQMAPPGGPPAAPPGGRGHSHRDRIHYQADVRLEATEEIYLTPVQRPPDAAEPTSAFLPPTESRMSVSSDPDPAAYPSTAGRPHPSISEEEEGFDCLSSPERAEPPGGGWRGSLGEPPPPPRASLSSDTSALSYDSVKYTLVVDEHAQLELVSLRPCFGDYSDESDSATVYDNCASVSSPYESAIGEEYEEAPRPQPPACLSEDSTPDGSGSGSGQEQTHRAIFRFVPRHEDELELEVDDPLLVELQAEDYWYEAYNMRTGARGVFPAYYAIEVTKEPEH
# notes: extension left at the N-terminus after TEV cleavage; (GS)3G linker that replaces residues 451-488 of JIP1; Residues 451-488 of JIP1 replaced by the glycine-serine linker because they are prone to aggregation; also called JIP1^SH3 dimer; not shown: thioredoxin, N-terminal, cleaved; His6, N-terminal, cleaved
# Target: the molecule itself
# Experiment: SEC-MALS; SEC-MALLS at 4 °C; 20 µL of JIP1^SH3 at 5.6 mg mL^-1 injected at 0.5 mL min^-1 on Superdex 200 10/300 GL in 50 mM HEPES pH 7.1, 150 mM NaCl, 2 mM DTT
protein,measurement,value
B1,stoichiometry N,2
